Reference: patent US20180305450A1 (AstraZeneca / MedImmune, published 2018)

Legend:
[1] = molecular target: T1, recombinant biotinylated cynomolgus (Macaca fascicularis) PAR2 extracellular residues 1-75, N-terminal … (cynomolgus (Macaca fascicularis)); assay: Biacore SPR 25 C, pH 7.4 (second row)
T1 construct: range 1-75; also called cynomolgus PAR2
Description: (§1) The experiments were carried out using recombinant human, rat and cynomolgus PAR2 with an N-terminal Avi tag and C-terminal Flag-His tags.
(§2) Streptavidin was covalently immobilised to a C1 chip surface using standard amine coupling techniques at a concentration of 4 μg/ml in 10 mM Sodium acetate pH 4.5. A final streptavidin surface of approximately 30-100 RUs was achieved. Recombinant biotinylated PAR2 species (produced in-house) were titrated onto the streptavidin chip surface at 4 μg/ml in HBS-EP+ buffer to enable Fab binding at saturation (Rₘₐₓ). This low level of analyte binding ensured minimal mass transport effects.
(§3) The anti-PAR2 Fabs were serially diluted (0.39 nM-25 nM) in HBS-EP+ buffer pH 7.4 or MES-BS-EP+ pH 6.0 buffer or in MES-BS-EP+ pH 5.6 buffer and flowed over the chip at 50 μl/min, with 3 minutes association and up to 30 minutes dissociation. Multiple buffer-only injections were made under the same conditions to allow for double reference subtraction of the final sensorgram sets, which were analysed using the BiaEval software (version 2.0.1). The chip surface was fully regenerated with pulses of 4 M MgCl₂.

[2] = molecular target: T2, recombinant biotinylated human PAR2 extracellular domain (residues 1-75), N-terminal AviTag, C-terminal Flag … (human, UniProt P55085 26-75, biotin on the AviTag (enzymatic biotinylation)); assay: Biacore SPR 25 C, pH 7.4 (second row)
T2 construct: also called Bio-human-PAR2 ECD; human PAR2 ECD; not shown: N-terminal AviTag (Avidity LLC); C-terminal Flag and poly Histidine tags
T2 sequence (P55085 26-75): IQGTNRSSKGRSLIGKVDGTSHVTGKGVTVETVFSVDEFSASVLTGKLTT
Description: as §1, §2, §3

[3] = molecular target: T2, recombinant biotinylated human PAR2 …; assay: Biacore SPR 25 C, pH 7.4; pH 7.4; human; second determination
Description: as §1, §2, §3

[4] = molecular target: T1, recombinant biotinylated cynomolgus …; assay: Biacore SPR 25 C, pH 7.4
Description: as §1, §2, §3

[5] = molecular target: T2, recombinant biotinylated human PAR2 …; assay: Biacore SPR 25 C, pH 7.4
Description: as §1, §2, §3

[6] = molecular target: T2, recombinant biotinylated human PAR2 …; assay: Biacore SPR 25 C, pH 6.0
[7] = molecular target: T3, recombinant biotinylated rat PAR2 extracellular residues 1-75, N-terminal AviTag, C-terminal Flag and poly … (rat, UniProt Q63645 26-75, not fully specified; biotin on the AviTag (enzymatic biotinylation)); assay: Biacore SPR 25 C, pH 6.0
T3 construct: range 1-75; not shown: N-terminal AviTag (Avidity LLC); C-terminal Flag and poly Histidine tags
T3 chain (looked up): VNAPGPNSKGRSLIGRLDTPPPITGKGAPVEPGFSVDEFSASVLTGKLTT

[8] = molecular target: T1, recombinant biotinylated cynomolgus …; assay: Biacore SPR 25 C, pH 6.0 (second row)
Description: as §1, §2, §3

[9] = molecular target: T2, recombinant biotinylated human PAR2 …; assay: Biacore SPR 25 C, pH 6.0 (second row)
Description: as §1, §2, §3

[10] = molecular target: T1, recombinant biotinylated cynomolgus …; assay: Biacore SPR 25 C, pH 6.0
Description: as §1, §2, §3

[11] = molecular target: T2, recombinant biotinylated human PAR2 …; assay: Biacore SPR 25 C, pH 6.0; remark: listed apart in the source
Description: as §1, §2, §3

[12] = molecular target: T1, recombinant biotinylated cynomolgus …; assay: Biacore SPR 25 C, pH 5.6
Description: as §1, §2, §3

[13] = molecular target: T2, recombinant biotinylated human PAR2 …; assay: Biacore SPR 25 C, pH 5.6
Description: as §1, §2, §3

[14] = molecular target: T2, recombinant biotinylated human PAR2 …; assay: Biacore SPR 25 C, pH 7.4; remark: listed apart in the source
[15] = molecular target: T3, recombinant biotinylated rat PAR2 …; assay: Biacore SPR 25 C, pH 7.4

Kd [1]: 0.335 nM | koff [1]: 0.00221 s⁻¹ | kon [1]: 6.59e+06 M⁻¹ s⁻¹ | Kd [2]: 0.778 nM | koff [2]: 0.0053 s⁻¹ | kon [3]: 6.81e+06 M⁻¹ s⁻¹ | Kd [4]: 0.333 nM | koff [4]: 0.00223 s⁻¹ | kon [4]: 6.67e+06 M⁻¹ s⁻¹ | Kd [5]: 0.748 nM | koff [5]: 0.00534 s⁻¹ | kon [5]: 7.14e+06 M⁻¹ s⁻¹ | Kd [6]: 34.8 nM | koff [6]: 0.0554 s⁻¹ | kon [6]: 1.59e+06 M⁻¹ s⁻¹ | Kd [7]: 57.9 nM | koff [7]: 0.0841 s⁻¹ | kon [7]: 1.45e+06 M⁻¹ s⁻¹ | Kd [8]: 13.6 nM | koff [8]: 0.0236 s⁻¹ | kon [8]: 1.74e+06 M⁻¹ s⁻¹ | Kd [9]: 33.5 nM | koff [9]: 0.109 s⁻¹ | kon [9]: 3.26e+06 M⁻¹ s⁻¹ | Kd [10]: 12.8 nM | koff [10]: 0.0275 s⁻¹ | kon [10]: 2.14e+06 M⁻¹ s⁻¹ | Kd [11]: 36.9 nM | koff [11]: 0.0576 s⁻¹ | kon [11]: 1.56e+06 M⁻¹ s⁻¹ | Kd [12]: 37.8 nM | koff [12]: 0.139 s⁻¹ | kon [12]: 3.66e+06 M⁻¹ s⁻¹ | Kd [13]: 84.5 nM | koff [13]: 0.112 s⁻¹ | kon [13]: 1.33e+06 M⁻¹ s⁻¹ | Kd [14]: 0.614 nM | koff [14]: 0.00504 s⁻¹ | kon [14]: 8.2e+06 M⁻¹ s⁻¹ | Kd [15]: 2.98 nM | koff [15]: 0.0263 s⁻¹ | kon [15]: 8.82e+06 M⁻¹ s⁻¹
B1: PaB670129 Fab (Fab, V domains shown)
VH: EVQLLESGGGLVQPGGSLRLSCAASGFTFSSYAMNWVRQAPGKGLEWVSTISYHGSHISYHDSVHHRFTISRDNSKNTLYLQMNSLRAEDTAVYYCARIHHDPMDVWGQGTLVTVSS
VL: SIELTQPPSVSVSPGQTASITCSGDNLGKKYVQWYQQKPGQSPVLVIYDDSNRPSGIPERFSGSNSGNTATLTISGTQAMDEADYYCQTWDGNPTTGETNVFGGGTKLTVL
notes: Fab; also called ZZ1RUE-F02
